Experimental data taken from the supplement of paper PMC7877785.
± gives the uncertainty stated by the source.

Assay: self-splicing fitness, log relative to wild type (ln ratio); higher = more splicing; Tetrahymena group I intron in knt gene, E. coli kanamycin selection, DiMSum; sequences stand for … in CUCUCU…GGAGGGAAAAGUUAUCAGGCAUGCACCUGGUAGCUAGUCUUUAAACCAAUAGAUUGCAUCGGUUUAAAAGGCAAGACCGUCAAAUUGCGGGAAAGGGGUCAACAGCCGUUCAGUACCAAGUCUCAGGGGAAACUUUGAGAUGGCCUUGCAAAGGGUAUGGUAAUAAGCUGACGGACAUGGUCCUAACCACGCAGCCAAGUCCUAAGUCAACAGAUCUUCUGUUGAUAUGGAUGCAGUUCACAGACUAAAUGUCGGUCGGGGAAGAUGUAUUCUUCUCAUAAGAUAUAGUCGGACCUCUCCUUAAUGGGAGCUAGCGGAUGAAGUGAUGCAACACUGGAGCCGCUGGGAACUAAUUUGUAUGCGAAAGUAUAUUGAUUAGUUUUGGAGUACUCGUGGUCG
In short: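 A randomised library covering all eight P1ex-region intron nucleotides was built with the intron in the knt kanamycin-resistance gene on pET-22b(+) and held in E. coli BL21(DE3). Cells were grown overnight at 37°C or 30°C on LB agar, with or without 25 μg/mL kanamycin, plus 100 μg/mL carbenicillin, 50 μM IPTG and 0.2% rhamnose, and pooled colonies were amplicon-sequenced on an Illumina HiSeq 2500. DiMSum fitness is the error-weighted combination of wild-type-normalised replicate fold changes, kanamycin versus none.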

Sequence	self-splicing fitness (ln) (30 °C)	self-splicing fitness (ln) (37 °C)
CCUAAGCAAUAUUACGCAAA	-3.38 ± 0.36	-1.76 ± 0.3
CUGUAGCAAUAUUACGUAUC	-4.3 ± 0.47	-1.57 ± 0.38
GAAGAGCAAUAUUACGAUAC	-2.75 ± 0.39	
UUCAAGCAAUAUUACGUCUU		-3.54 ± 0.33
UACUAGCAAUAUUACGAUUG	-1.88 ± 0.16	-0.352 ± 0.21
UCCUAGCAAUAUUACGACUA	-1.23 ± 0.38	-2.73 ± 0.41
AUGAAGCAAUAUUACGUACU	0.105 ± 0.096	0.581 ± 0.11
CCUUAGCAAUAUUACGUUGC	-3.68 ± 0.38	-3.31 ± 0.3
UGGAAGCAAUAUUACGUGAG	-0.593 ± 0.066	-0.141 ± 0.098
AGCCAGCAAUAUUACGGACU	-1.93 ± 0.088	-0.917 ± 0.096
UCGAAGCAAUAUUACGCCCC	-1.87 ± 0.44	
CCAGAGCAAUAUUACGUCCU	-4.05 ± 0.22	-2.48 ± 0.25
ACUUAGCAAUAUUACGCUUG	-1.7 ± 0.094	-0.865 ± 0.12
CAGGAGCAAUAUUACGGUGA	-2.96 ± 0.22	-3 ± 0.27
AUCCAGCAAUAUUACGCAGC	-1.43 ± 0.13	-1.26 ± 0.2
GCAGAGCAAUAUUACGUUAU	-2.65 ± 0.46	-2.44 ± 0.44
CCGCAGCAAUAUUACGAGGC	-3.72 ± 0.19	-2.65 ± 0.23
UUGAAGCAAUAUUACGGUGG	-0.88 ± 0.059	-0.498 ± 0.11
GAAAAGCAAUAUUACGUGAC	-4.06 ± 0.34	-1.17 ± 0.17
UGCUAGCAAUAUUACGGCGU	-3.57 ± 0.22	-1.89 ± 0.17
AAAGAGCAAUAUUACGAAUA	-1.42 ± 0.35	

Sequence	self-splicing fitness (ln) (30 °C)	self-splicing fitness (ln) (37 °C)
ACAAAGCAAUAUUACGCCCU	-0.361 ± 0.098	0.683 ± 0.14
GUACAGCAAUAUUACGAUCA	-1.83 ± 0.13	-0.392 ± 0.2
UCUAAGCAAUAUUACGGGCG	-1.54 ± 0.11	-0.979 ± 0.095
AAAAAGCAAUAUUACGUAGG	-1.7 ± 0.093	-1.66 ± 0.11
GUGCAGCAAUAUUACGCUUA	-0.938 ± 0.092	0.781 ± 0.15
CCCCAGCAAUAUUACGUCGG	-3.66 ± 0.16	-2.86 ± 0.33
CCCCAGCAAUAUUACGCACC	-2.46 ± 0.18	-2.32 ± 0.24
GCGUAGCAAUAUUACGUCUG	-3.48 ± 0.23	-3.38 ± 0.24
CGUUAGCAAUAUUACGCCGG	-0.8 ± 0.11	-0.767 ± 0.11
ACGUAGCAAUAUUACGGUAC	-3.46 ± 0.18	-2.57 ± 0.3
CCGUAGCAAUAUUACGGCUU	-3.06 ± 0.35	-3.06 ± 0.43
AUACAGCAAUAUUACGAGGU	-3.04 ± 0.11	-1.84 ± 0.11
CCUAAGCAAUAUUACGACAU	-3.909 ± 0.025	-2.82 ± 0.038
UUGGAGCAAUAUUACGCGCG	-2.3 ± 0.11	-0.8 ± 0.1
UGGAAGCAAUAUUACGGUGA	-1.41 ± 0.12	-0.4 ± 0.13
AACAAGCAAUAUUACGGGCC	-2.99 ± 0.25	0.104 ± 0.19
GCUCAGCAAUAUUACGGAAA	-1.62 ± 0.15	-0.337 ± 0.12
UGGCAGCAAUAUUACGGGCA	-0.0254 ± 0.11	-0.0149 ± 0.12
GCAUAGCAAUAUUACGGUAA	-2.31 ± 0.16	-0.658 ± 0.15
CCCCAGCAAUAUUACGGGAG	-3.08 ± 0.17	-2.61 ± 0.18
CGGCAGCAAUAUUACGAUCU	-0.274 ± 0.084	0.148 ± 0.11

Sequence	self-splicing fitness (ln) (30 °C)	self-splicing fitness (ln) (37 °C)
CUAAAGCAAUAUUACGGUGU	-4.65 ± 0.25	-3.05 ± 0.21
UAACAGCAAUAUUACGGGUG	-0.577 ± 0.049	-0.256 ± 0.068
UAUCAGCAAUAUUACGUCCU	-1.44 ± 0.18	-1.01 ± 0.2
GUUAAGCAAUAUUACGCCAG	-3.1 ± 0.23	-2.75 ± 0.28
GCCAAGCAAUAUUACGAUGA	-3.12 ± 0.19	-1.66 ± 0.12
UUGUAGCAAUAUUACGACUU	-0.894 ± 0.3	0.769 ± 0.36
CAAGAGCAAUAUUACGUAUG	-3.02 ± 0.13	-1.36 ± 0.15
CAUGAGCAAUAUUACGGUGA	-1.91 ± 0.35	-2.8 ± 0.44
UUUAAGCAAUAUUACGCUGA	-2.47 ± 0.2	-0.978 ± 0.15
AUAUAGCAAUAUUACGUUGU	-3.79 ± 0.29	
AGGCAGCAAUAUUACGUAUG	-3.27 ± 0.27	-1.53 ± 0.15
CAUUAGCAAUAUUACGGUUC	-3.48 ± 0.21	-2.55 ± 0.23
GCCGAGCAAUAUUACGUGUC	-3.23 ± 0.14	-1.64 ± 0.12
CAUGAGCAAUAUUACGUUGC	-2.57 ± 0.091	-3.34 ± 0.2
GCUCAGCAAUAUUACGAGCG	-2.81 ± 0.16	-0.923 ± 0.11
UCACAGCAAUAUUACGGAUA	-2.87 ± 0.16	-1.47 ± 0.12
UUUUAGCAAUAUUACGGUGA	-0.38 ± 0.15	0.0249 ± 0.14
ACUGAGCAAUAUUACGCUAA	-3.41 ± 0.43	-3.71 ± 0.39
AAGGAGCAAUAUUACGUAUG	-3.31 ± 0.34	-3.58 ± 0.33
